Reference: patent US9422583B2, “Stereospecific carbonyl reductases” (RUTGERS, THE STATE UNIVERSITY OF NEW JERSEY, priority 2009, dated 2016)

What was measured:
O=C(CO)c1ccccc1 = experiment: reduction of 2-hydroxyacetophenone with NADPH, apparent kinetic parameters by Lineweaver-Burk plots; format: biochemical, Candida parapsilosis
Method: (§1) Since environmental pH value can have an influence on the stereochemistry of enzymatic reactions (Secundo and Phillips, Enzyme Microb. Technol., 19, 487-492 (1996)), the effect of the reaction pH on the activities of SCRs catalyzing 2-hydroxyacetophenone reduction was also investigated. […] Subsequently, the enzymes were evaluated under their individual optimal pH, and apparent kinetic parameters were further measured by double reciprocal Lineweaver-Burk plots at various 2-hydroxyacetophenone concentrations with fixed NADPH concentrations. […] The values are the average of three independent experiments.
(§2) Enzyme Assays. Carbonyl reductase activity was measured by a continuous spectrophotometric assay using 2-hydroxyacetophenone as a substrate. One unit of enzyme activity was defined as the amount of enzyme catalyzing the oxidation of 1 μmol NAD(P)H per min under the assay conditions. The standard assay mixture for the enzyme activity comprised of 0.1 M potassium phosphate buffer (pH 6.5), 0.3 mM NAD(P)H, 0.7 mM 2-hydroxyacetophenone and appropriate enzyme in a total volume of 100 μl. The decrease in the amount of the coenzyme was measured spectrophotometrically at 340 nm (extinction coefficient [ε]=6.22 mM^−1 cm^−1). Protein concentration was determined using Bradford reagents (Bio-Rad) with bovine serum albumin as a standard. The pH dependence of enzyme activity was determined over a pH range of 4.0 to 8.5 using the following buffers: 0.1 M acetate (pH 4.0 to 6.0), 0.1 M sodium phosphate (pH 6.0 to 8.0) and 0.1 M Tris-HCl (pH 8.0 to 8.5).

[1] = Carbonyl reductase activity and kinetic parameters, continuous spectrophotometric assay (NAD(P)H decrease at 340 nm); format: biochemical; details: reduction of 2-hydroxyacetophenone
Method: Catalytic Properties of Recombinant SCRs. The enzymatic activities of SCR1, SCR2, and SCR3 were investigated for reduction of 2-hydroxyacetophenone.
as §1, §2

[2] = Substrate specificity of SCRs with NADPH as cofactor; format: biochemical
Source text: The substrate specificity of SCRs was investigated under the same conditions as described above. Various carbonyl compounds including aryl ketones, aliphatic ketones, α- and β-ketone esters were used as the substrates with the cofactor of NADPH.

[3] = other: pH 6.0 (optimum pH), NADPH as cofactor at fixed concentration, average of three independent experiments
[4] = other: pH 5.0 (optimum pH), NADPH as cofactor at fixed concentration, average of three independent experiments
[5] = other: pH 4.5 (optimum pH), NADPH as cofactor
[6] = other: pH 5.5 (optimum pH), NADPH as cofactor at fixed concentration, average of three independent experiments
[7] = NADPH as cofactor, at optimum pH of each enzyme
[8] = compared with the other enzyme (SCR1 vs SCR3)

With “Candida parapsilosis stereospecific carbonyl reductase SCR3, SEQ ID NO:2 (GenBank FJ939564), recombinant with C-terminal His6 tag (Lodderomyces parapsilosis CDC317)” the Km (O=C(CO)c1ccccc1; [3]) was 4.68 mM and the Vmax (O=C(CO)c1ccccc1; [3]) was 32.3 µmol/min/mg.

For “Candida parapsilosis stereospecific carbonyl reductase SCR1, SEQ ID NO:4 (GenBank FJ939565), recombinant with C-terminal His6 tag (Lodderomyces parapsilosis CDC317)”, the Km (O=C(CO)c1ccccc1; [4]) was 9.83 mM and the Vmax (O=C(CO)c1ccccc1; [4]) was 42 µmol/min/mg.

“Candida parapsilosis CPADH, SEQ ID NO:1 (GenBank DQ675534) (Lodderomyces parapsilosis CDC317)” gave a Km (O=C(CO)c1ccccc1; [5]) of 5.83 mM and a Vmax (O=C(CO)c1ccccc1; [5]) of 18.3 µmol/min/mg.

“Candida parapsilosis stereospecific carbonyl reductase SCR2, SEQ ID NO:3 (GenBank FJ939563), recombinant with C-terminal His6 tag (Lodderomyces parapsilosis CDC317)” showed a Km (O=C(CO)c1ccccc1; [6]) of 4.81 mM and a Vmax (O=C(CO)c1ccccc1; [6]) of 8.83 µmol/min/mg.

B1: SCR2: stereospecific carbonyl reductase from C. parapsilosis, GenBank FJ939563, recombinant with C-terminal His6 tag (protein, listed as Candida parapsilosis)
chain: MGEIESYCNKELGPLPTKAPTLSKNVLDLFSLKGKVASVTGSSGGIGWAVAEAYAQAGADVAIWYNSHPADEKAEHLQKTYGVRSKAYKCNISDPKSVEETISQQEKDFGTIDVFVANAGVPWTEGPEINVDNYDSWNKIINLDLNGVYYCAHTVGKIFKKNGKGSLVITSSMSGTIVNVPQLQAAYNAAKAACTHLTKSLAVEWAPFARVNCVSPGYIATEISDFVEKDMKAKWWQLTPLGREGLAQELVGAYLYLASNASTYTTGANLAVDGGYTCP
modifications: C-terminal His6 tag
In the case of B1, the “pH (optimum pH for each enzyme)” value ([1]; NADPH as cofactor) is reported as 5.5, the Specific activity [1, 7] is reported as 1.55 μmol/min mg protein and the Specific activity ([1]; under the assay conditions) is reported as 1.55 µmol/min/mg protein.

B2: CPADH: C. parapsilosis enzyme encoded by cpadh gene, GenBank DQ675534, comparison enzyme in Table 1 (protein, listed as Candida parapsilosis)
chain: MGEIESYCNKELGPLPTKAPTLSKNVLDLFSLKGKVASVTGSSGGIGWAVAEAYAQAGADVAIWYNSHPADEKAEHLQKTYGVHSKAYKCNISDPKSVEETISQQEKDFGTIDVFVANAGVTWTQGPEIDVDNYDSWNKIISVDLNGVYYCSHNIGKIFKKNGKGSLIITSSISGKIVNIPQLQAPYNTAKAACTHLAKSLAIEWAPFARVNTISPGYIDTDITDFASKDMKAKWWQLTPLGREGLTQELVGGYLYLASNASTFTTGSDVVIDGGYTCP
With B2 the “pH (optimum pH for each enzyme)” value ([1]; NADPH as cofactor) was 4.5 and the Specific activity [1, 7] was 2.70 μmol/min mg protein.

B3: SCR3: stereospecific carbonyl reductase from C. parapsilosis, GenBank FJ939564, recombinant with C-terminal His6 tag (protein, listed as Candida parapsilosis)
chain: MGEIESYCNKELGPLPTKAPTLAKNVLDLFSLKGKVASVTGSSGGIGWAVAEAYAQAGADVAIWYNSHPADEKAEHLQKTYGVRSKAYKCNISDPKSVEETISQQEKDFGTIDVFVANAGIPWADGPVIDLENYDAWNKLINTDINGVFYCAHSIGKIFKKNGKGSLIITASLAGSVVTIPQQQTPYNTAKAACLHLAKSLAVEWAPFARVNTVSPGYFETEINGFADEDMREKWYQLTPLGRMGITEELVGGYLYFASNASTFTTGSDLIIDGGFTCP
modifications: C-terminal His6 tag
For B3, the “pH (optimum pH for each enzyme)” value ([1]; NADPH as cofactor) was 6.0, the Specific activity [1, 7] was 4.23 μmol/min mg protein and the “specificity to p-Cl-2-hydroxyacetophenone” value [2, 8] was “more specific”.

B4: SCR1: stereospecific carbonyl reductase from C. parapsilosis, GenBank FJ939565, recombinant with C-terminal His6 tag (protein, listed as Candida parapsilosis)
chain: MSKDETISYCNDQLGPLPTTAPKVSDNVTDLFSFKGKVVSVTGSSGGIGWAVAEGFAQAGADVAIWYHSHNADEKAKYLQEKYGVKSIAYGCNIGVAEEVQKTVDQIESDFGKIDVFVANAGIPWTDGPEIDVQDLSKWTKIIDTDLNSVYYCAHAIGPIFRKQGKGSLVITASMSATIVNVPQLQAAYNVAKAGVKHLSKSLAVEWAPFARVNSVSPGYISTNLTTFANPDLQKKWVQLTPLGREGHPKELVGAYLYLASDAATFTTGCDLAVDGGYTVP
modifications: C-terminal His6 tag
With B4 the “pH (optimum pH for each enzyme)” value ([1]; NADPH as cofactor) was 5.0, the Specific activity [1, 7] was 5.16 μmol/min mg protein and the “activity for reduction of ethyl 4-chloro-3-oxobutyrate” value ([2]; among the tested β-ketoesters) was “highest activity”. The “activity to m-Cl-2-hydroxyacetophenone” value [2, 8] was “higher activity”.
